In patent US20080103095A1 (HEALTH RESEARCH, published 2008):

Target: T1, native hsp110 from murine tumor cells (Colon26 / colon 26, Meth A) and liver (mouse (murine colon 26 tumor), UniProt Q61699 2-858, limits assumed)
T1 construct: Native protein in cell extracts or chromatographic fractions; also called heat shock protein 110
Test: immunoblot of the purified native hsp110 fraction (ion exchange and size exclusion) from Colon26 cells

T1 sequence (Q61699 2-858 limits assumed): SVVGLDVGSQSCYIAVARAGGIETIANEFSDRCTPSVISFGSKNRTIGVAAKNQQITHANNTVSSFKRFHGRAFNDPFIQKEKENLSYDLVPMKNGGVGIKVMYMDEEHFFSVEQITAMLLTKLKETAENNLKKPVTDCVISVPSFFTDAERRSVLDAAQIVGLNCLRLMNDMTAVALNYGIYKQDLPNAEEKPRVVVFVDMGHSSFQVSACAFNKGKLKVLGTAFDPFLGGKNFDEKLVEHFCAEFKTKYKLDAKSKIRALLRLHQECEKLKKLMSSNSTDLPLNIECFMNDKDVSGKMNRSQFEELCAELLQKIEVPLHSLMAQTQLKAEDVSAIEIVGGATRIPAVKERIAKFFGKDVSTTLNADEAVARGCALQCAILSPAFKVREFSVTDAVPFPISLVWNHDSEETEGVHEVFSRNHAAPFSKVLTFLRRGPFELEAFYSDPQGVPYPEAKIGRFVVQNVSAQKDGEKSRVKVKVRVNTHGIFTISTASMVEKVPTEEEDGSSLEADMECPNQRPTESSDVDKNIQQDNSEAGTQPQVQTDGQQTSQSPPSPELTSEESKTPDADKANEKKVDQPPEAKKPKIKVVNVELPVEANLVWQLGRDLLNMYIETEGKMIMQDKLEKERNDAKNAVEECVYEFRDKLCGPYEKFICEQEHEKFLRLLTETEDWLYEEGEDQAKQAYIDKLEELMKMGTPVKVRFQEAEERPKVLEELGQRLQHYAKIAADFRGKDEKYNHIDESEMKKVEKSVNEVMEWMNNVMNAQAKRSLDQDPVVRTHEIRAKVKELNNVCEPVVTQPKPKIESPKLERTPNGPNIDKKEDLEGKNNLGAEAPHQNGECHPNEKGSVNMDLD

B1: T-complex polypeptide1 (TCP-1) in Colon26 cells (other)
chain: not shown
binding result: no binding
